Drawing on article PMC5903968 (FEBS letters, 2018), this text covers Ki for 1 molecule.

Broadly, the Ki is the equilibrium dissociation constant of an inhibitor or competing ligand from its target. Read a low Ki as a stronger hold on the target.

Common to all, as to assay: enzyme inhibition assay
Experiment [1] concerns the target MMP-10 catalytic domain (MMP-10CAT) (UniProt P09238 99-263).
Experiment [2] deals with MMP-14 catalytic domain (MMP-14CAT) (UniProt P50281 114-287).
Experiment [3] deals with T1, human MMP-9 catalytic domain (MMP-9CAT), residues 107-215, 391-443 (human, UniProt P14780 107-215; P14780 391-443).
T1 chain (looked up): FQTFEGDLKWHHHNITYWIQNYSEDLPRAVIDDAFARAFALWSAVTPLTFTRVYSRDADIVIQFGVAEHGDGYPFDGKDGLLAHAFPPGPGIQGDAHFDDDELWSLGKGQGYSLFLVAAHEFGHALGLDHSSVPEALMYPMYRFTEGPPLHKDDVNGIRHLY

Experiment [4] has as its target T2, MMP-1 catalytic domain (MMP-1CAT) (UniProt P03956 100-269).
T2 sequence (looked up): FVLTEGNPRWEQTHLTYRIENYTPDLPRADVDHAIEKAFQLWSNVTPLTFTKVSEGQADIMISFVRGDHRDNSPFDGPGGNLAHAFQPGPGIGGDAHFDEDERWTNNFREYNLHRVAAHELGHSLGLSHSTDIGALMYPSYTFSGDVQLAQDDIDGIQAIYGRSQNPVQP

Sequence of MMP-10 catalytic domain (MMP-10CAT) (P09238 99-263): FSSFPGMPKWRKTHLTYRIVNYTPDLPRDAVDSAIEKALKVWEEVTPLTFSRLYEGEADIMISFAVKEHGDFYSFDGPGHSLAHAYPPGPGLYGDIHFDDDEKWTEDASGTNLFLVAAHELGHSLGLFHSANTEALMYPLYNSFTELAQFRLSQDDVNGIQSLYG

B1: N-terminal domain of TIMP-2 (N-TIMP2), wild type (domain or fragment, UniProt P16035 27-152, looked up)
chain: CSCSPVHPQQAFCNADVVIRAKAVSEKEVDSGNDIYGNPIKRIQYEIKQIKMFKGPEKDIEFIYTAPSSAVCGVSLDVGGKKEYLIAGKAEGDGKMHITLCDFIVPWDTLSTTQKKSLNHRYQMGC
Regarding B1, the inhibition constant (Ki) in experiment [1] turned out to be 4.3 nM; in experiment [2] it was 2.52 nM; in experiment [3], 0.12 nM; in experiment [4] it was 0.25 nM.
